Measured values as given in US20220324998A1 (MUSC FOUNDATION FOR RESEARCH DEVELOPMENT, published 2022).

Tests used:
[1] = target: T1, HRAS(G12V) (UniProt P01112 1-189); assay: FLAG IP of monobody from HEK cells co-transfected with HA-tagged RAS mutant (FIG. 11D)
T1 construct: also called G12V mutant
Source text: FIG. 11A depicts KRAS(Q61L) co-expression with NS1 and R15. FIG. 11B depicts KRAS(G12D) co-expression with NS1 and R15. FIG. 11C depicts KRAS(G13D) co-expression with NS1 and R15. FIG. 11D depicts HRAS(G12V) co-expression with NS1 and R15. FIGS. 11E and 11F depict total expression of proteins with NS1 and R15, respectively, in whole cell lysates (WCL). HEK cells were co-transfected with the indicated Mb and HA-tagged RAS mutant. Monobodies were subsequently immunoprecipitated with FLAG antibodies to purify the associated RAS mutant protein. IPs were washed extensively with buffer containing high Mg2+ and lacking nucleotide. RAS proteins were then eluted from the immune complex with buffer containing low concentrations of SDS and deoxycholate (DOC). Eluted RAS proteins were then recovered and diluted 10-fold with buffer lacking SDS and DOC. Purified RAS proteins were then normalized to equivalent levels and incubated with GST-RAF-RBD to determine the level of active GTP-loaded RAS. As indicated, NS1 purified RAS-GTP as the purified RAS proteins robustly bound GST-RAF RBD both in the absence and presence of added GTPγS. […] However, addition of GTPγS (+GTP) to the R15m10 purified RAS proteins reconstituted binding to the RAF-RBD.
HEK cells were co-transfected with the indicated Mb and HA-tagged RAS mutant. […]

[2] = target: T2, NRAS(Q61L) (UniProt P01111 1-189, limits assumed); assay: co-IP (FLAG IP, Western blot) from HEK cells (FIG. 6)
T2 construct: HA-tagged, expressed in HEK cells
Source text: (§1) R15m clones were expressed as CFP-FLAG fusion proteins in HEK cells along with various HA-tagged mutants of HRAS. CFP and NS1 Monobody were used as controls. CFP-FLAG and CFP-FLAG-tagged Monobodies (Mb) were immunoprecipitated, fractionated on SDSPAGE, and probed for binding to HRAS mutants. Antibodies used in Western blots are shown to the right of each panel.
(§2) R15 or R18 Monobody was expressed as CFP-FLAG fusion proteins in HEK cells along with various HA-tagged mutants of HRAS or KRAS, immunoprecipitated, and probed for binding to RAS mutants (FIGS. 1B and 1C). Additionally, various R15-derivative (R15m #) Monobody clones were expressed as CFP-FLAG fusion proteins in HEK cells along with various HA-tagged mutants of HRAS, immunoprecipitated, and probed for binding to RAS mutants (FIG. 5). R15 and R18 clones bound predominantly to Q61L, D119N, and K16N mutants with little binding to wild type (WT) or G12V mutant. K16N purifies from bacteria in a nucleotide free state. […] R15m10 binds Q61L mutants of all three RAS isoforms in addition to binding to NRAS(G12D) mutant (FIG. 6). Further R15m10 binds common oncogenic RAS mutants (FIG. 7 and FIG. 8).

[3] = target: NRAS(G12D) (UniProt P01111 1-189, limits assumed); assay: as above
Source text: as §1, §2

[4] = target: T3, HRAS(Q61L) (UniProt P01112 1-189, limits assumed); assay: as above
T3 construct: HA-tagged, expressed in HEK cells; also called Q61L mutant; HA-tagged HRAS Q61L
Source text: as §1, §2

Measured: binding result

B1: FLAG-tagged CFP-R15m10 Monobody (designed binder)
chain: VSSVPTKLEVVAATPTSLLISWDASSSSVSYYRITYGETGGNSPVQEFTVPGYYSTATISGLKPGVDYTITVYAVWQGVWRYVSPISINYRT
notes: also called apo-specific monobody R15m10; not shown: CFP; FLAG tag
binds: all assays above
